The values below come from PMC6092398, “Revealing circadian mechanisms of integration and resilience by visualizing clock proteins working in real time” (Nature Communications, 2018).

Where a chain is given by its changes, count along the chain named.

The target in series [1] is KaiA (UniProt Q79PF6). The series is described as follows: HS-AFM single-molecule dwell time.
The target in series [2] is KaiA (UniProt Q79PF6). The series is described as follows: HS-AFM single-molecule dwell time. This is another data set of the same source.
In series [3] the target is T1, KaiC-AE (mimic of S/pT) (S. elongatus, UniProt Q79PF4 1-519, KaiC-AE (S431 to A) | KaiC-AE (T432 to E)).
T1 construct: KaiC of Synechococcus elongatus with the two phosphorylation sites S431 and T432 changed to A and E; the two substitutions are read from these; source: E. coli BL21 or DH5α, pGEX-based construct, purified (glutathione-agarose, HRV3C cleavage on the column, Q Sepharose); not shown: GST, N-terminal, cleaved
T1 sequence: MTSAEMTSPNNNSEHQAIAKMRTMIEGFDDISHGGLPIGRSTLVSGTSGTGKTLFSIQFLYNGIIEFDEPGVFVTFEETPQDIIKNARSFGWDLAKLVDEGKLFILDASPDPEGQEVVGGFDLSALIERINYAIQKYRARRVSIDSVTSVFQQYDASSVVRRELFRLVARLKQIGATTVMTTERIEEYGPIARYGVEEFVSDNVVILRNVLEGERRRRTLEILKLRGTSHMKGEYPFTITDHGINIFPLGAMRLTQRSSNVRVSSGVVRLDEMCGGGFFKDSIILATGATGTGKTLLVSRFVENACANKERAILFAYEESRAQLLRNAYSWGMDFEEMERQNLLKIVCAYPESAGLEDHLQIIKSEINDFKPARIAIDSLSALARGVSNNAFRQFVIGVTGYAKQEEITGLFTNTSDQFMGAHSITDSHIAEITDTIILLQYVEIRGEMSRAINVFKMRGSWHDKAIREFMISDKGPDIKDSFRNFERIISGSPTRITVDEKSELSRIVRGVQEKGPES
The series is described as follows: high-speed atomic force microscopy (HS-AFM); as Fig. 3 but with 1 mM ATP in the observation buffer (Supplementary Fig. 4); KaiC phospho-mimics on AP-mica, KaiA in solution. Particulars: both partners purified.

Series [4] has as its target T2, KaiC-DE (mimic of pS/pT) (S. elongatus, UniProt Q79PF4 1-519, KaiC-DE (S431 to D) | KaiC-DE (T432 to E)).
T2 construct: KaiC of Synechococcus elongatus with the two phosphorylation sites S431 and T432 changed to D and E; the two substitutions are read from these; source: E. coli BL21 or DH5α, pGEX-based construct, purified (glutathione-agarose, HRV3C cleavage on the column, Q Sepharose); not shown: GST, N-terminal, cleaved
T2 sequence: T1 sequence with A431D
The series is described as above. Particulars: both partners purified.

Series [5] deals with T3, KaiC-AA (mimic of S/T) (S. elongatus, UniProt Q79PF4 1-519, KaiC-AA (S431 to A) | KaiC-AA (T432 to A)).
T3 construct: KaiC of Synechococcus elongatus with the two phosphorylation sites S431 and T432 changed to A and A; the two substitutions are read from these; source: E. coli BL21 or DH5α, pGEX-based construct, purified (glutathione-agarose, HRV3C cleavage on the column, Q Sepharose); not shown: GST, N-terminal, cleaved
T3 sequence: T1 sequence with E432A
The description is as above. Particulars: both partners purified.

Series [6] concerns the target T1, KaiC-AE (mimic of S/pT). The series is described as follows: high-speed atomic force microscopy (HS-AFM); KaiC phospho-mimics on AP-mica (CII end up), 1 μM KaiA in solution, no ATP; dwell time of the KaiA-bound state from images at 10 fps, fitted to a first order model; 20 mM Tris-HCl pH 8.0, 5 mM MgCl2, 25-28 °C. Particulars: both partners purified.
Series [7] deals with T4, KaiC-DA (mimic of pS/T) (S. elongatus, UniProt Q79PF4 1-519, KaiC-DA (S431 to D) | KaiC-DA (T432 to A)).
T4 construct: KaiC of Synechococcus elongatus with the two phosphorylation sites S431 and T432 changed to D and A; the two substitutions are read from these; source: E. coli BL21 or DH5α, pGEX-based construct, purified (glutathione-agarose, HRV3C cleavage on the column, Q Sepharose); not shown: GST, N-terminal, cleaved
T4 sequence: T1 sequence with A431D, E432A
The description is as above. Particulars: both partners purified.

The target of series [8] is T2, KaiC-DE (mimic of pS/pT). The series is described as above. Particulars: both partners purified.
Series [9] deals with the molecule itself. The series is described as follows: high-speed atomic force microscopy (HS-AFM); KaiC^WT alone immobilised on bare mica (N-terminal side seen), images compared with an AFM image simulated from the crystal structure.
Setting [10] is: reference: KaiC-AA (S431A/T432A), sites T432.
Setting [11] is: reference: KaiC-AA (S431A/T432A), sites S431.
Where [12] appears, read: reference: KaiC-AA (S431A/T432A), sites S431,T432.
Setting [13] is: reference: KaiC-AE (S431A/T432E), sites S431.

Turning to “KaiC (from UniProt Q79PF4) KaiC-AE (S431A/T432E)”, the results for the other: bound-state lifetime τbound in series [1] (setting [10]) and in series [2] (setting [10]) were 0.95 s and 1 s, respectively.
As for “KaiC (from UniProt Q79PF4) KaiC-DA (S431D/T432A)”, the other: bound-state lifetime τbound in [1] (setting [11]) and in [2] (setting [11]) was 0.43 s in each case.
For “KaiC (from UniProt Q79PF4) KaiC-DE (S431D/T432E)”, the other: bound-state lifetime τbound in series [1] (setting [12]) was 0.31 s; in series [1] (setting [13]) it was “weaker; reference 0.95 ± 0.04”; in series [1] (reference: KaiC-DA (S431D/T432A), sites T432), “weaker; reference 0.43 ± 0.01”; in [2] (setting [12]), 0.26 s; in series [2] (setting [13]), “weaker; reference 1.00 ± 0.15”.
For “KaiC (from UniProt Q79PF4) KaiCWT from peak phosphorylation phase (24 h)”, the “other: bound-state lifetime τbound” value in series [2] (reference: KaiCWT from trough phosphorylation phase (15 h), sites S431,T432) was “weaker; reference 0.77 ± 0.05”.
Consider “KaiC (from UniProt Q79PF4) hyperphosphorylated KaiCWT (~81% phosphorylated)”, for which the “other: bound-state lifetime τbound” value in series [2] (reference: hypo-phosphorylated KaiCWT (~27% phosphorylated), sites S431,T432) was “weaker; reference 1.12 ± 0.03”.

B1: KaiA (natural protein, S. elongatus, UniProt Q79PF6 1-284, looked up)
chain: MLSQIAICIWVESTAILQDCQRALSADRYQLQVCESGEMLLEYAQTHRDQIDCLILVAANPSFRAVVQQLCFEGVVVPAIVVGDRDSEDPDEPAKEQLYHSAELHLGIHQLEQLPYQVDAALAEFLRLAPVETMADHIMLMGANHDPELSSQQRDLAQRLQERLGYLGVYYKRDPDRFLRNLPAYESQKLHQAMQTSYREIVLSYFSPNSNLNQSIDNFVNMAFFADVPVTKVVEIHMELMDEFAKKLRVEGRSEDILLDYRLTLIDVIAHLCEMYRRSIPRET
notes: circadian clock protein KaiA of Synechococcus elongatus, native (unmutated); also called native KaiA; KaiA dimer; source: E. coli BL21 or DH5α, pGEX-based construct, purified (glutathione-agarose, HRV3C cleavage on the column, Q Sepharose); not shown: GST, N-terminal, cleaved
For B1, the “τ_(bound) (dwell time of the bound state)” value in series [3] amounted to 0.95 s; in [4] it was 0.31 s; in series [6], 1 s; in series [7], 0.43 s; in series [8] it was 0.26 s. In addition, in series [5], the binding result is given as “binds”.

B2: native wild-type KaiC hexamer (KaiC^WT) (natural protein, S. elongatus)
chain: T1 sequence with A431S, E432T
notes: circadian clock protein KaiC of Synechococcus elongatus, native (unmutated); also called native KaiC; C6; source: E. coli BL21 or DH5α, pGEX-based construct, purified (glutathione-agarose, HRV3C cleavage on the column, Q Sepharose; 5 mM MgCl2 and 1 mM ATP throughout); not shown: GST, N-terminal, cleaved
Usually stoichiometry N stands for the number of molecules, sites or subunits per partner or assembly. On to B2, for which the “stoichiometry N” value in series [9] is 6.
